Experimental data from PMC10359491, “Identification and characterization of aptameric inhibitors of human neutrophil elastase”.

Assays:
[1] = target: T1, human neutrophil elastase (HNE) (Homo sapiens, UniProt P08246 30-267); assay: enzyme inhibition; conditions: elastin-Congo red, 90% for E6 and E12, ELISA: PBS pH 7.4, 5 mM MgCl2, 10 mM KCl, 0.01% Tween 20, 20 min (temperature not stated), inhibition: 50 mM Tris pH 7.5, 150 mM NaCl, 5 mM MgCl2, 0.
[2] = target: T1, human neutrophil elastase (HNE); assay: ELISA; HNE immobilized; ELISA: PBS pH 7.4, 5 mM MgCl2, 10 mM KCl, 0.01% Tween 20, 20 min (temperature not stated); inhibition: 50 mM Tris pH 7.5, 150 mM NaCl, 10 mM KCl, 5 mM MgCl2, 0.02% Tween 20, 37 C; conditions: protein: commercial; for Kd: label: biotin (ELISA)
[3] = target: T1, human neutrophil elastase (HNE); assay: enzyme inhibition; DQ gelatin substrate; competitive; ELISA: PBS pH 7.4, 5 mM MgCl2, 10 mM KCl, 0.01% Tween 20, 20 min (temperature not stated); inhibition: 50 mM Tris pH 7.5, 150 mM NaCl, 10 mM KCl, 5 mM MgCl2, 0.02% Tween 20, 37 C; conditions: protein: commercial, label: biotin (ELISA)
[4] = target: T1, human neutrophil elastase (HNE); assay: enzyme inhibition; elastin-Congo red, 100 nM HNE; E6/E12 values swapped in a second sentence; ELISA: PBS pH 7.4, 5 mM MgCl2, 10 mM KCl, 0.01% Tween 20, 20 min (temperature not stated); inhibition: 50 mM Tris pH 7.5, 150 mM NaCl, 10 mM KCl, 5 mM MgCl2, 0.02% Tween 20, 37 C; conditions: protein: commercial, label: biotin (ELISA)
[5] = predicted: 1 G4, 3 hairpin loops (not tested)
[6] = predicted: 2 G4, 2 hairpin loops (not tested)

T1 sequence (P08246 30-267): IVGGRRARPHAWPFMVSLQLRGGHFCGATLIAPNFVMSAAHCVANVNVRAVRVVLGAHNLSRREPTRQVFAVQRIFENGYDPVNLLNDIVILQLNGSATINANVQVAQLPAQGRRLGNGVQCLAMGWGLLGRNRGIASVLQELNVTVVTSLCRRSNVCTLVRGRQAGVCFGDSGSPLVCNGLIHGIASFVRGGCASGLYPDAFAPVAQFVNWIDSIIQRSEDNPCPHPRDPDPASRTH

With dsDNA 24-mer as the molecule, how does the binding signal [1] read?
The binding signal was 10 % inhibition.

B1: NC nonspecific ssDNA (ssDNA)
DNA: CATGCTTCCCCAGGGAGATGAACCCTTTGGGAAACCCTTTGGGAAACCCTTTGGGGAGGAACATGCGTCGCAAAC
Does B1 bind ([2]; label: 5' biotin (ELISA))?
Result: no binding

B2: aptamer E6 (ssDNA)
DNA: CATGCTTCCCCAGGGAGATGAGGACGGGCGTGGGGATGGGTATGGTGCAACTCCCGAGGAACATGCGTCGCAAAC
How did the Kd [2, 5] turn out when B2 was run?
Its Kd is 20.5 nM.

And the Ki [3, 5]?
The Ki was 52 ± 6 nM.

What about the IC50 [4, 5] of the same molecule?
Its IC50 is 173 nM.

B3: aptamer E12 (ssDNA)
DNA: CATGCTTCCCCAGGGAGATGGGCGTGGGGGTTGGGTATGGTGCTTGAGGGGCCTGGAGGAACATGCGTCGCAAAC
B3 was tested. Which Kd [2, 6] did it give?
The Kd was 13.9 nM.

And the Ki [3, 6]?
Its Ki is 22 ± 1 nM.

What about the IC50 [4, 6] of the same molecule?
The IC50 was 178 nM.
